Test results published in PMC3492137.

How the values were obtained:
[1] = molecular target: human immunoglobulin G, biotinylated; test: microtiter plate dissociation assay (immobilised mutant, hIgG-biotin detected with streptavidin-alkaline phosphatase, A405); conditions: 2 µg/ml mutant conjugated, 6 µM hIgG-biotin, read off a plot, scale: normalized absorbance at 405 nm
[2] = molecular target: Fc portion of human immunoglobulin G, biotinylated; test: yeast surface display end-point dissociation assay, flow cytometry (strep-PE); conditions: dissociation at pH 4.5 for 30 min; parent: est. 0.88; read off a plot; scale: normalized fluorescence
[3] = dissociation at pH 2.5 for 30 min, parent: est. 0.33
[4] = dissociation at pH 3.5 for 30 min, parent: est. 0.91
[5] = dissociation at pH 4.5 for 30 min, parent: est. 1.0

Substance | response [1, 3] | response [1, 4] | response [1, 5] | response [2]
Sso7d-hFc with a C-terminal cysteine Sso7d-ev-hFc | 0.35 | 0.87 | 1 | 
Sso7d-hFc, yeast cell surface fusion Sso7d-ev-hFc |  |  |  | 0.06
Sso7d-hFc, yeast cell surface fusion Y40H |  |  |  | 0.1
Sso7d-hFc with a C-terminal cysteine Y40H | 0.33 | 0.79 | 1 | 
